Laboratory results as given in US20220332804A1 (CSL INNOVATION, published 2022).
Numbering of substitutions follows the chain as printed.

Experiments:
Test in all cases: SPR, antibody captured, C2 as analyte;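 further: biacore at 37 °C, anti-C2 mAbs held by immobilised goat anti-human IgG, C2 alanine or serine mutants injected, double-referenced sensorgrams fitted to a 1:1 kinetic or steady-state model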
human C2 K457A = molecular target: T1, human C2 K457A (human, UniProt P06681 21-752)
T1 sequence: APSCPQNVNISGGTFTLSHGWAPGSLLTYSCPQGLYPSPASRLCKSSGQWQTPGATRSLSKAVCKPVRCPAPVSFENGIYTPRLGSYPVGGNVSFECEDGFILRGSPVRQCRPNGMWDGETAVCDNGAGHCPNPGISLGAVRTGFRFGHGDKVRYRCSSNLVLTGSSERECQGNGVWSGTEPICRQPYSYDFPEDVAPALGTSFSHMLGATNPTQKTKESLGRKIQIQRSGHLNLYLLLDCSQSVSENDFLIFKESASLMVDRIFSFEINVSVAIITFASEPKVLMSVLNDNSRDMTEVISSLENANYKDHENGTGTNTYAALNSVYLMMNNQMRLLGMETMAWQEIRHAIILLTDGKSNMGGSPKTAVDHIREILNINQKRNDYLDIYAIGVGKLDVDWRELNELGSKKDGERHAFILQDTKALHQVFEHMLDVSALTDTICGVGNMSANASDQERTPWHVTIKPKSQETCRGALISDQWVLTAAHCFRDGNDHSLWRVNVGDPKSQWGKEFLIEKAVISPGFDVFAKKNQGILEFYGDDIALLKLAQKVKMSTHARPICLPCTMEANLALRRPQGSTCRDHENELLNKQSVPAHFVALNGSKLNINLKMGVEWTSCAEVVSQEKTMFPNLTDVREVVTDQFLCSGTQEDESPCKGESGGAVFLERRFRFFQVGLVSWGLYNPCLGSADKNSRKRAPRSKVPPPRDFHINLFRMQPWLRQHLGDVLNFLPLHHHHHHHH

human C2 N471A = molecular target: T2, human C2 N471A (human, UniProt P06681 21-752)
T2 sequence: T1 sequence with A437K, N451A

human C2 K244A = molecular target: T3, human C2 K244A (human, UniProt P06681 21-752)
T3 sequence: T1 sequence with K224A, A437K

human C2 V455A = molecular target: T4, human C2 V455A (human, UniProt P06681 21-752)
T4 sequence: T1 sequence with V435A, A437K

B1: RF16-242 (antibody, human IgG4 S228P, lambda, V domains shown)
VH: EVQLLQSGAEVKKPGESLKISCKGSGYSFTSYWIGWVRQMPGKGLEWMGIIYPGDSDTRYSPSFQGQVTISADKSISTAYLQWSSLKASDTAMYYCARRGHYGDYFDYWGQGTLVTVSS
VL: SYELTQPPSVSVSPGQTARITCSGDALPKKYAYWYHQKSGQAPVLVIYEDRRRPSEIPERFSGSSSGTMATLTITGAQVEDEGVYFCYSRDRAGNQRVFGGGTQLTVLG
notes: pH-dependent anti-C2 antibody from a phage display library
Binder B1 has a Kd (human C2 K457A) of 233 nM, a Kd (human C2 N471A) of 9.2 nM and a Kd (human C2 K244A) of 26.2 nM. It also gave a Kd (human C2 V455A) of 5.9 nM.
